Here are results for 15 molecules from patent publication US20190309034A1 (Boehringer Ingelheim, published 2019).

For assay [1], the target named is Recombinant soluble trimeric human BAFF (furin-cleaved human BAFF 134-285) (human, UniProt Q9Y275 134-285). Nature of the assay: cell-based or functional assay.
For assay [2], the target named is Recombinant soluble 60-mer human BAFF (His-HuBAFF 134-285) (human, UniProt Q9Y275 134-285). Put plainly: cell-based or functional assay.

B1: 394F5A5 (antibody, V domains shown)
VH: VTLKESGPGILQPSQTLSLTCSFSGFSLRTFGMGVGWIRQPSGKGLEWLAHIWWNDEKYYNPTLKSRLTISKDTSKNQVFLRIANVDTAVTAAYYCARIGPSITTVVEGFPYWGQGTLVTVSA
VL: DIVMTQSQKFMSTTIGDRVSITCKASQNVGSAVAWYQQKPGQPPKLLIYSTSNRYTGVPDRFTGSRSGTDFTLTVSNMQSEDLADYFCQQYASYPLTFGTGTKLELK
Turning to B1, in assay [1], the “Soluble trimeric huBAFF (50 pM) Neutralization IC50” value was 16 pM and the “Soluble trimeric huBAFF (50 pM) Neutralization IC90” value stood at 433 pM. In assay [2], the “Soluble 60-mer huBAFF (4 pM) Neutralization IC50” value was found to be 7 pM and the “Soluble 60-mer huBAFF (4 pM) Neutralization IC90” value turned out to be 29 pM.

B2: 381A6A9 (antibody, V domains shown)
VH: QVQLQQSGPELVKPGGSVKISCKAAGYSLTSYYIHWVKQRPGQGLEWIGLIFPGSGNSKYIEKFKGKATLTADTSSNTAYMQLSSLTSEDSAVYYCTRGDFGNYLAYWYFDVWGTGTTVTVSS
VL: DIKMTQSPSSIYASLGERVTITCKASQDINSYLSWFQQKPGKSPKTLMYRANRLVDGVPSRFSGSGSGQDYSLTISSLEYEDMGNYYCLQYDEFPYTFGGGAKLEIK
B2: in assay [1], the “Soluble trimeric huBAFF (50 pM) Neutralization IC50” value turned out to be 44 pM and the “Soluble trimeric huBAFF (50 pM) Neutralization IC90” value was 240 pM. In assay [2], the “Soluble 60-mer huBAFF (4 pM) Neutralization IC50” value was determined as 17 pM and the “Soluble 60-mer huBAFF (4 pM) Neutralization IC90” value is 42 pM.

B3: 443C11A12 (antibody, V domains shown)
VH: EVQLQQSGPELVKPGASVKMSCTASGYTFTSYVIHWMKQKPGQGLEWIGYLHRNNDGTKYNEKFKVKATLTSDESSNTAYMELSSLTSEDSAVYYCARGDYSNYFYWYFDVWGAGTTVSVSS
VL: DIKMTPSPSSMYASLGERVTITCKASQDINSYLSWFQQKPGKSPKTLIYRANRLVDGVPSRFSGSGSGQDYSLTISSLEYEDMGIYYCLQYDEFPYTSGGGTKLEIK
Regarding B3, in assay [1], the “Soluble trimeric huBAFF (50 pM) Neutralization IC50” value was determined as 33 pM and the “Soluble trimeric huBAFF (50 pM) Neutralization IC90” value turned out to be 309 pM. In addition, in assay [2], the “Soluble 60-mer huBAFF (4 pM) Neutralization IC50” value was found to be 13 pM and the “Soluble 60-mer huBAFF (4 pM) Neutralization IC90” value came out at 30 pM.

B4: 435A6B3 (antibody, V domains shown)
VH: EVQLQQSGPELVKPGASMKMSCKASGYTFTSYVMHWMKQKPGQGLEWIGYLNPNNDGTKYNEKFKGKATLTSDKSSSTAYMELSSLTSEDSAVYYCARGDYSNYFYWYFDVWGAGTTVSVSS
VL: DIKMTPSPSSMYASLGERVTITCKASQDINRYLSWFQQKPGKSPKTLIYRANRLVDGVPSRFSGSGSGQDYSLTISSLEYEDMGIYYCLQYDEFPYTFGGGTKLEIK
Regarding B4, in assay [1], the “Soluble trimeric huBAFF (50 pM) Neutralization IC50” value was found to be 23 pM and the “Soluble trimeric huBAFF (50 pM) Neutralization IC90” value is 294 pM. Besides, in assay [2], the “Soluble 60-mer huBAFF (4 pM) Neutralization IC50” value amounted to 10 pM and the “Soluble 60-mer huBAFF (4 pM) Neutralization IC90” value stood at 26 pM.

B5: 384D5A2 (antibody, V domains shown)
VH: QVTLKESGPGILQPSQTLSLTCSFSGFSLNTYGMGVGWIRQPSGKGLEWLANIWWNDDKYYNSALKSRLAISKDASNSQVFLKISSVDTTDTATYYCAQVAATIVTTYGAWFAYWGQGTLVTVSA
VL: DIQMTQSPASLSVSVGETVTITCRSSENIYSSLAWYQQKQGKSPQLLVYAATNLAKGVPSRFSGSGSGTQYSLKINSLQSEDFGSYFCQHFWGSPFAFGSGTKLEIK
Turning to B5, in assay [1], the “Soluble trimeric huBAFF (50 pM) Neutralization IC50” value is 42 pM and the “Soluble trimeric huBAFF (50 pM) Neutralization IC90” value was 765 pM. Also, in assay [2], the “Soluble 60-mer huBAFF (4 pM) Neutralization IC50” value is 15 pM and the “Soluble 60-mer huBAFF (4 pM) Neutralization IC90” value came out at 44 pM.

B6: 537G7A6 (antibody, V domains shown)
VH: QVQLKESGPGLVAPSQSLSITCTVSGFSLSRYSVHWIRQSPGKGLEWLGMIWGGGNTDYNSGLKSRLSISKDNSKSQVFLKMNSLENDDTAMYYCASPSLYYYDVAWFPYWGQGTLVTVSA
VL: DIVLTQSPASLAVSVGQRATVSCRVSESVDRYADSFMHWYQQKPGQPPKLLIYLASNLESGVPARFSGSGSRTDFTLTIDPVEADDAATYYCQQNKEDPYTFGGGTKLELK
For the molecule B6, in assay [1], the “Soluble trimeric huBAFF (50 pM) Neutralization IC50” value came to 28 pM and the “Soluble trimeric huBAFF (50 pM) Neutralization IC90” value came to 329 pM. Besides, in assay [2], the “Soluble 60-mer huBAFF (4 pM) Neutralization IC50” value was 13 pM and the “Soluble 60-mer huBAFF (4 pM) Neutralization IC90” value was 39 pM.

B7: 418F6D9 (antibody, V domains shown)
VH: QVQLQQSGPELVKPGASVKLSCKASGYTFTDYSIHWVKQSPGQGLEWIGWIYPGSGNTKYNDKFKGKATMTADKSSRTVYMQLSSLTSEESAVYFCARDYRRYYAIDYWGQGTSVTVSS
VL: IVLTQSSASLAVSLGQRATISCRASESVDSYGNSLMHWYQQKPGQPPKLLIYIASNLESGVPARFSGSGSRTDFTLTIDPVEADDAATYYCQQNSEDPRTFGGGTKLEIK
With B7, in assay [1], the “Soluble trimeric huBAFF (50 pM) Neutralization IC50” value is 38 pM and the “Soluble trimeric huBAFF (50 pM) Neutralization IC90” value was found to be 491 pM. Further, in assay [2], the “Soluble 60-mer huBAFF (4 pM) Neutralization IC50” value is 27 pM and the “Soluble 60-mer huBAFF (4 pM) Neutralization IC90” value was found to be 154 pM.

B8: 436H2C12 (antibody, V domains shown)
VH: QVQLQQSGPELVKPGASVKLSCKASGYTFSDYTIHWVKQSPGQGLEWIGWIYPGRGNTKYNDKFKGKATMTADKSSSTAYMQLSSLTSEESAVYFCARDYRRYYAMDYWGQGTSVTVSS
VL: NIVLTQSPASLAVSLGQRATISCRASESVDNYGNSFMHWYQQKPGQPPKLLISLASNLESGVPARFSGSGSRTDFTLTIDPVEADDAATYYCQQNNEDPRTFGGGTKLEIK
Regarding B8, in assay [1], the “Soluble trimeric huBAFF (50 pM) Neutralization IC50” value turned out to be 27 pM and the “Soluble trimeric huBAFF (50 pM) Neutralization IC90” value was 408 pM. In addition, in assay [2], the “Soluble 60-mer huBAFF (4 pM) Neutralization IC50” value is 15 pM and the “Soluble 60-mer huBAFF (4 pM) Neutralization IC90” value was determined as 37 pM.

B9: 450A2A7 (antibody, V domains shown)
VH: QVQLQQSGPELVKPGASVKLSCKASGYTFTDYSIHWVKQSPGQGLEWIGWIYPGSDNTKYNDKFKGKASMTADKSSRTVYMHLSSLTSEESAVYFCARDYRRYYAMDYWGQGTSVTVSS
VL: IVLTQSSASLAVSLGQRATISCRASESVDRYGNSLMHWYQQKPGQPPKLLIYIASNLESGVPARFSGSGSRTDFTLTIDPVEADDAATYYCQQNNEDPRTFGGGTKLEIK
In the case of B9, in assay [1], the “Soluble trimeric huBAFF (50 pM) Neutralization IC50” value was 36 pM and the “Soluble trimeric huBAFF (50 pM) Neutralization IC90” value came to 602 pM. In addition, in assay [2], the “Soluble 60-mer huBAFF (4 pM) Neutralization IC50” value worked out at 24 pM and the “Soluble 60-mer huBAFF (4 pM) Neutralization IC90” value turned out to be 130 pM.

B10: 441E6F2 (antibody, V domains shown)
VH: RVQLKESGPGLVAPSQSLFITCTVSGFSLTTYEINWVRQSPGKGLEWLGVIWTGGTTKYNSAFISRLSITKDNSKSLVFLKMSSLQTDDTAIYYCVREGRRYYAMDYWGQGTSVTVSS
VL: NIVLTQSPASLAVSLGQRATISCRTSESVDSYGNSFMFWFQQKPGQAPKLLIFLTSNLESGVPARFSGSGSRTDFTLTIDPVEADDAATYYCQQSNEDPRTFGGGTKLEIK
Take B10: in assay [1], the “Soluble trimeric huBAFF (50 pM) Neutralization IC50” value stood at 43 pM and the “Soluble trimeric huBAFF (50 pM) Neutralization IC90” value came to 293 pM. For the same molecule, in assay [2], the “Soluble 60-mer huBAFF (4 pM) Neutralization IC50” value was 16 pM and the “Soluble 60-mer huBAFF (4 pM) Neutralization IC90” value is 37 pM.

B11: 444G1A10 (antibody, V domains shown)
VH: RVQLKESGPGLVAPSQSLFITCTVSGFSLTTYEINWVRQSPGKGLEWLGVIWTGGTTKYNSAFISRLSITKDNSKSLVFLKMSSLQTDDTAIYYCVREGRRYYAMDYWGQGTSVTVSS
VL: NIVLTQSPASLAVSLGQRATISCRASESVDSYGNSFMFWFQQKPGQAPKLLIFLTSNLESGVPARFSGSGSRTDFTLTIDRVEADDAATYYCQQSNEDPRTFGGGTKLEIK
B11: in assay [1], the “Soluble trimeric huBAFF (50 pM) Neutralization IC50” value worked out at 25 pM and the “Soluble trimeric huBAFF (50 pM) Neutralization IC90” value was 284 pM. Besides, in assay [2], the “Soluble 60-mer huBAFF (4 pM) Neutralization IC50” value came out at 12 pM and the “Soluble 60-mer huBAFF (4 pM) Neutralization IC90” value was found to be 35 pM.

B12: 440E9D12 (antibody, V domains shown)
VH: QVRLRESGPGLVAPSQNLFITCTVSGFSLTDYEINWVRQPPGKNLEWLGVIWTGGGTKYNSVLISRLNISKDNSKRQVFFKMTSLQTDDTAIYYCVREGRRYYAMDYWGQGTSVTVSS
VL: NIVLTQSPASLPVSLGQRATMSCRASKSVDSYGTSFMHWYQHRPGQPPKLLISLASNLESGVPGRFSGSGSRTDFTLTIDPVEPDDAATYYCQQNNEDPRTFGGGTTLEIK
Regarding B12, in assay [1], the “Soluble trimeric huBAFF (50 pM) Neutralization IC50” value was 31 pM and the “Soluble trimeric huBAFF (50 pM) Neutralization IC90” value was 259 pM. For the same molecule, in assay [2], the “Soluble 60-mer huBAFF (4 pM) Neutralization IC50” value was 11 pM and the “Soluble 60-mer huBAFF (4 pM) Neutralization IC90” value was determined as 31 pM.

B13: 409F12A11 (antibody, V domains shown)
VH: IQLQQSGPELVKPGASMKISCKASGYTFTDKYINWVKQRPGQGLEWIGWIYPGSGNTKYNEKFKGMATLTVDTSSNTAYIHLSSLTSEDSAVYFCARGIIYYYDGSYPYALDYWGQGTSVTVSS
VL: DIVLTQSPASLALSLGQRATISCRATKGVSKSGYSYMHWYQQKPGQPPKLLIYLASNLESGVPARFSGSGSGTDFTLNIHPVEEEDVATYYCQHSRELPLTFGAGTKLELK
In the case of B13, in assay [1], the “Soluble trimeric huBAFF (50 pM) Neutralization IC50” value worked out at 31 pM and the “Soluble trimeric huBAFF (50 pM) Neutralization IC90” value was 390 pM. In assay [2], the “Soluble 60-mer huBAFF (4 pM) Neutralization IC50” value is 16 pM and the “Soluble 60-mer huBAFF (4 pM) Neutralization IC90” value stood at 44 pM.

B14: 436H6A9 (antibody, V domains shown)
VH: QLQQSGPELVKPGASVKISCKASGYTFTDNFINWVKQRPGQGLEWIGWISPGSGNTKNNEKFKGKATVTVDTSSSTAYMQLSSLTSEDSAVYFCARGIIYYYDGTYPYALDYWGQGTSVTVSS
VL: DIVLTQSPASLGVSLGQRATISCRATKGVTKSGYSYIHWYQQKPGQPPKLLIYLASNLQSGVPARFSGSGSGTDFTLNIHPVEEEDAATYYCQHSRELPLTFGAGTKLELK
On to B14, for which, in assay [1], the “Soluble trimeric huBAFF (50 pM) Neutralization IC50” value is 26 pM and the “Soluble trimeric huBAFF (50 pM) Neutralization IC90” value is 266 pM. In assay [2], the “Soluble 60-mer huBAFF (4 pM) Neutralization IC50” value was determined as 10 pM and the “Soluble 60-mer huBAFF (4 pM) Neutralization IC90” value came to 27 pM.

B15: 431G5A3 (antibody, V domains shown)
VH: QLQQSGPELVKPGASVKLSCKASGYTFTDYSIHWVKQSPGQGLEWIGWIYPGSDNTKYNDKFKGKASMTADKSSRTVYMHLSSLTSEESAVYFCARDYRRYYAMDYWGQGTSVTVSS
VL: KIVLTQSSASLAVSLGQRATISCRASESVDRYGNSLMHWYQQKPGQPPKLLIYIASNLESGVPARFSGSGSRTDFTLTIDPVEADDAATYYCQQNNEDPRTFGGGTKLEIK
As to B15, in assay [1], the “Soluble trimeric huBAFF (50 pM) Neutralization IC50” value is 28 pM and the “Soluble trimeric huBAFF (50 pM) Neutralization IC90” value stood at 336 pM. In addition, in assay [2], the “Soluble 60-mer huBAFF (4 pM) Neutralization IC50” value was 21 pM and the “Soluble 60-mer huBAFF (4 pM) Neutralization IC90” value came to 100 pM.
